According to patent US20150056208A1 (VILARA, published 2015):
Where no end group is shown, it is not given here. [ ]: non-standard residue; d: D form. Cit = NC(=O)NCCC[C@H](N)C(=O)O

How the values were obtained:
Experiment in all cases: SPR, peptide on CAP chip, 1:1 fit
[1] = biological target: T1, citrullinated human fibrinogen residues 36-52 (cit-fib) (human, also: biotinylated, place not given here)
T1 construct: Biotinylated peptide on streptavidin plates (ELISA) or CAP chip (SPR); also called Fib36-52; cit fibrinogen
T1 peptide: NEEGFFSA[Cit]GHRPLDKK

[2] = biological target: T2, citrullinated human enolase peptide 1 (CEP-1) (human, cysteine pairing not given here; also: biotinylated form used in SPR, place not given here)
T2 construct: Coated directly on plates in ELISA; biotinylated and captured on a CAP chip in SPR; also called cit a-enolase; citrullinated alpha-enolase peptide 1
T2 peptide: CKIHA[Cit]EIFDS[Cit]GNPTVEC

[3] = biological target: T3, citrullinated human vimentin residues 60-75 (cit-vim) (human, also: biotinylated, place not given here)
T3 construct: Biotinylated peptide on streptavidin plates (ELISA) or CAP chip (SPR); also called Vim60-75; cit vimentin
T3 peptide: VYAT[Cit]SSAV[Cit]L[Cit]SSVP

B1: antibody A09 (antibody)
chain 1: KSRTEIHSRVCGGHRAQLQGQLALGRVNGYGDSTLEGRVVVNAPTKVDNPNRLQPLPWGLADPHPVVTIIPNGASRDSAGEGQGLRRLHQSW
chain 2: GPLSDLINDDFGGFAWVLLVPGDKSITHNITAACSAGDGDRLSRRPRHGGRLSQHRL
- Kd [1]: 160 nM
- koff [1]: 0.0291 s⁻¹
- koff [2]: 0.0429 s⁻¹
- Kd [3]: 180 nM
- koff [3]: 0.0433 s⁻¹
